Patent publication US20230091175A1

B1: mouse anti-human IL-12 antibody (clone 22-4), original (unmodified) (Fab, V domains shown, not shown: a dimerising Fc or GST)
VH: EVQLQESGPSLVKPSQTLSLTCSVTGDSITSGYWNWIRKFPGNKLEYMGYISYSGSTYYNPSLKSRISITRDTSKNQNYLQLNSVTTEDTATYYCARRDTTVVVPYYFDYWGQGTTLTVSS
VL: DIVMTQSHKFMSTSVGDRVSITCKASQDVGTAVAWYQQKPGQSPKLLIYWASTRHTGVPGRFTGSGSGTDFTLTINNVQSEDLADYFCQQYSSYPLTFGAGTKLELKR
B2: R3 variant of anti-IL-12 antibody (clone 22-4) (Fab, V domains shown, not shown: a dimerising Fc or GST)
VH: EVQLQESGPSLVKPSQTLSLTCSVTGDSITSGYWNWIRKFPGNKLEYMGYISYSGSTYYNPSLKSRISITRDTSKNQNYLQLNSVTTEDTATYYCARRDTTVVVPYYFDYWGQGTTLTVSS
VL: DIVMTQSHKFMSTSVGDRVSITCKASQDVGTAVAWYQQKPGQSPKLLIYWASTRHTGVPGRFRGRGRGTDFTLTINNVQSEDLADYFCQQYSSYPLTFGAGTKLELKR
B3: R4 variant of anti-IL-12 antibody (clone 22-4) (Fab, V domains shown, not shown: a dimerising Fc or GST)
VH: EVQLQESGPSLVKPSQTLSLTCSVTGDSITSGYWNWIRKFPGNKLEYMGYISYSGSTYYNPSLKSRISITRDTSKNQNYLQLNSVTTEDTATYYCARRDTTVVVPYYFDYWGQGTTLTVSS
VL: DIVMTQSHKFMSTSVGDRVSITCKASQDVGTAVAWYQQKPGQSPKLLIYWASTRHTGVPGRFRGRGRGTRFTLTINNVQSEDLADYFCQQYSSYPLTFGAGTKLELKR

What was measured:
[1] = biological target: human IL 12 protein (Recombinant His, C-terminus) (aa23-328) (LS-G134297-50: LSBio, Inc.) (human) (UniProt P29460); test: SPR (Biacore 8K); affinity ratio with the original antibody as 1.0
[2] = biological target: human IL 12 protein (Recombinant His, C-terminus) (aa23-328) (LS-G134297-50: LSBio, Inc.) (human) (UniProt P29460); test: SPR (Biacore 8K), antigen immobilized on CM4 chip, antibody as analyte

Chain of human IL 12 protein (Recombinant His, C-terminus) (aa23-328) (LS-G134297-50: LSBio, Inc.) (human) (P29460 23-328, form in doubt): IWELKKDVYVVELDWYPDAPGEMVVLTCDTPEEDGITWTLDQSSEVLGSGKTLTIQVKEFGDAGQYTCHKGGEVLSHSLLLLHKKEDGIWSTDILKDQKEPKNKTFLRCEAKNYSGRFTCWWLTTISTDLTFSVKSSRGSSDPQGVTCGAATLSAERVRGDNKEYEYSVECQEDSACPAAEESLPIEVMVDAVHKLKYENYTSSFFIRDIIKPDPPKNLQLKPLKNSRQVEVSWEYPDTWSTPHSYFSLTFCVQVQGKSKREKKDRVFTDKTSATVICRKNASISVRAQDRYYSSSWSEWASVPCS

KD ratio [1] | Kd [2] [pM] | Binder
1 | 10300 | B1
20.8 | 497 | B2
42.2 | 245 | B3
